Where “and” joins values, the source holds several entries; their conditions need not be identical. Equal entries are not always repeated. Where two headings read alike, the source gives them in different places.
Columns and labels:
[1] = molecular target: SARS-CoV-2 Spike-pseudotyped lentivirus (GeneCopoeia CAT. SP101-100) (SARS-CoV-2) (UniProt P0DTC2)
[2] = molecular target: SARS-CoV-2 S1 (Sino Biological 40591-V08B1) (SARS-CoV-2) (UniProt P0DTC2); assay: OECT sensor, SpyDirect SARS-CoV-1 nanobody gate, 1.2 aM spike (FIG. 4C, saliva)
[3] = molecular target: SARS-CoV-2 S1 (Sino Biological 40591-V08B1) (SARS-CoV-2) (UniProt P0DTC2)
[4] = molecular target: snoopTag-msfGFP-3C cleavage site-TwinStrep
lysozyme [5] = assay: OECT sensor, SpyDirect SARS-CoV-1 nanobody gates after 7-day storage, lysozyme
lysozyme, sequence (P00698 19-147): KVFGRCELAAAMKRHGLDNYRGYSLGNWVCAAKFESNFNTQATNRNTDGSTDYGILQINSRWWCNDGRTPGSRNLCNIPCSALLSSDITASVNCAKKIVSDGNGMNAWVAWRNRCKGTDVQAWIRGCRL

[6] = molecular target: Cysteine terminated spyTag peptide (…); assay: QCMD, nanobody-SpyCatcher coupling to Cys-SpyTag peptide on gold (SpyDirect)
[7] = molecular target: SARS-CoV-2 S1 (Sino Biological 40591-V08B1) (SARS-CoV-2) (UniProt P0DTC2); remark: listed apart in the source
lysozyme [8] = molecular target: lysozyme

For “VHH72-8 aa-spyCatcher-3C cleavage site-His8”, the normalized response (NR) [1] was 28%, the normalized response (NR) [2] was 20% and the Density per cm^2 [3] was 5.2e+12 per cm^2 and 2.3e+12 per cm^2. For the same substance, the gained mass (ng/cm^2) [3] was 290 ng/cm^2 and 659 ng/cm^2, the gained mass (ng/cm^2) [4] was under 1 ng/cm^2 and the normalized response (NR) (lysozyme [5]) was under 12%. It also gave a Density per cm^2 [6] of 7.8e+12 per cm^2, a gained mass (ng/cm^2) [6] of 376 ng/cm^2 and a normalized response (NR) [7] of 20%. The normalized response (NR) (lysozyme [8]) was under 15%.

Reference: US20250027901A1
